{"source": "paper PMC7516205", "about": "“The Two-Component Locus MSMEG_0244/0246 Together With MSMEG_0243 Affects Biofilm Assembly in M. smegmatis Correlating With Changes in Phosphatidylinositol Mannosides Acylation” (Frontiers in Microbiology, 2020)", "proteins": {"B1": {"name": "StrepMSMEG_0243 (truncated MSMEG_0243 lacking the predicted signal peptide) (natural protein, Mycobacterium smegmatis mc2155, UniProt A0QP20 26-116, looked up)", "chain": "DPAPNPPNCTAADLAGVASGVSAGTSAYLFTHPQVNDFFTSLEGLPREEVKPKVADYLAANPQVKDELTAVRQPLVDLKNRCGTAPAPELP", "notes": "truncated version lacking the predicted signal peptide (predicted cleavage site between pos. 25 and 26: ALA-DP); The methods name the vector once as pET-22(b)+ and once as pET-28(b)+; vector-derived residues may be present; also called apo-MSMEG_0243; source: E. coli Bl21 Rosetta, purified (Streptavidin beads, size exclusion chromatography)"}}, "molecular_target": "the molecule itself", "test": "SEC; HiLoad Superdex 200 PG, 20 mM Tris-HCl, 100 mM NaCl, pH 7.4; apo protein after Strep-tag purification; elution profile overlaid with that of a protein of known size (25.0 kDa)"}
{"protein": "B1", "values": [{"measurement": "stoichiometry N", "result": 2}]}
